According to IntAct's records for PubMed 20869963:

B1: Protein Rex (Human T-cell leukemia virus 1 (strain Japan ATK-1 subtype A)), P0C205 (parent)
chain: MPKTRRRPRRSQRKRPPTPWPTSQGLDRVFFSDTQSTCLETVYKATGAPSLGDYVRPAYIVTPYWPPVQSIRSPGTPSMDALSAQLYSSLSLDSPPSPPREPLRPSRSLPRQSLIQPPTFHPPSSRPCANTPPSEMDTWNPPLGSTSQPCLFQTPDSGPKTCTPSGEAPLSACTSTSFPPPSPGPSCPT

Variants of: B1
Conditions: with dicer_human DICER1, Q9UPY3

How did the “effect of a mutation on the interaction” value turn out when MPKTRDRPRRSQRKRPPTPWPTSQGLDRVFFSDTQSTCLETVYKATGAPSLGDYVRPAYIVTPYWPPVQSIRSPGTPSMDALSAQLYSSLSLDSPPSPPREPLRPSRSLPRQSLIQPPTFHPPSSRPCANTPPSEMDTWNPPLGSTSQPCLFQTPDSGPKTCTPSGEAPLSACTSTSFPPPSPGPSCPT [R6D] was run?
The value was “decreasing interaction”.

For MPKTDRRPRRSQRKRPPTPWPTSQGLDRVFFSDTQSTCLETVYKATGAPSLGDYVRPAYIVTPYWPPVQSIRSPGTPSMDALSAQLYSSLSLDSPPSPPREPLRPSRSLPRQSLIQPPTFHPPSSRPCANTPPSEMDTWNPPLGSTSQPCLFQTPDSGPKTCTPSGEAPLSACTSTSFPPPSPGPSCPT [R5D], which “effect of a mutation on the interaction” value is on record?
Its value is “decreasing interaction”.

For MPKTRRDPRRSQRKRPPTPWPTSQGLDRVFFSDTQSTCLETVYKATGAPSLGDYVRPAYIVTPYWPPVQSIRSPGTPSMDALSAQLYSSLSLDSPPSPPREPLRPSRSLPRQSLIQPPTFHPPSSRPCANTPPSEMDTWNPPLGSTSQPCLFQTPDSGPKTCTPSGEAPLSACTSTSFPPPSPGPSCPT [R7D], which “effect of a mutation on the interaction” value is on record?
Its value is “decreasing interaction”.

Variants of: B1
Conditions: with dicer_human DICER1, Q9UPY3
Remark: another data set of the same source

With MPKTRRRPRRSQRKRPPTPWPTSQGLDRVFFSDTQSTCLETVYKATGAPSLGDYVRPAYIVTPDWPPVQSIRSPGTPSMDALSAQLYSSLSLDSPPSPPREPLRPSRSLPRQSLIQPPTFHPPSSRPCANTPPSEMDTWNPPLGSTSQPCLFQTPDSGPKTCTPSGEAPLSACTSTSFPPPSPGPSCPT [Y64D] as the variant, how does the “effect of a mutation on the interaction” value read?
The value was “disrupting interaction”.

For MPKTRRRPRRSQRKRPPTPWPTSQGLDRVFFSDTQSTCLETVYKATGAPSLGDYVRPAYIVTPYLPPVQSIRSPGTPSMDALSAQLYSSLSLDSPPSPPREPLRPSRSLPRQSLIQPPTFHPPSSRPCANTPPSEMDTWNPPLGSTSQPCLFQTPDSGPKTCTPSGEAPLSACTSTSFPPPSPGPSCPT [W65L], which “effect of a mutation on the interaction” value is on record?
Its value is “disrupting interaction”.

Variants of: B1
Conditions: with dicer_human DICER1, Q9UPY3
Remark: another data set of the same source

For MPKTRRRPRRSQRKRPPTPWPTSQGLDRVFFSDTQSTCLETVYKATGAPSLGDYVRPAYIVTPYWPPVQSIRSPGTPSMDALSAQLYSSLSADSPPSPPREPLRPSRSLPRQSLIQPPTFHPPSSRPCANTPPSEMDTWNPPLGSTSQPCLFQTPDSGPKTCTPSGEAPLSACTSTSFPPPSPGPSCPT [L92A], which “effect of a mutation on the interaction” value is on record?
Its value is “decreasing interaction”.

MPKTRRRPRRSQRKRPPTPWPTSQGLDRVFFSDTQSTCLETVYKATGAPSLGDYVRPAYIVTPYWPPVQSIRSPGTPSMDALSAQLYSSASLDSPPSPPREPLRPSRSLPRQSLIQPPTFHPPSSRPCANTPPSEMDTWNPPLGSTSQPCLFQTPDSGPKTCTPSGEAPLSACTSTSFPPPSPGPSCPT [L90A] was tested. Which “effect of a mutation on the interaction” value did it give?
Its value is “decreasing interaction”.

Variants of: B1
Conditions: with dicer_human DICER1, Q9UPY3
Remark: another data set of the same source

MPKTRRRPRRSQRKRPPTPWPTSQGLDRVFFSDTQSTCLETVYKATGAPSLGDYVRPAYIVTPYWPPVQSIRSPGTPSMDALSAQLYSSLSLDSPPSPPREPLRPSRSLPRQSLIQPPDFHPPSSRPCANTPPSEMDTWNPPLGSTSQPCLFQTPDSGPKTCTPSGEAPLSACTSTSFPPPSPGPSCPT [T119D] was tested. Which “effect of a mutation on the interaction” value did it give?
Its value is “disrupting interaction”.

Which “effect of a mutation on the interaction” value does the source give for MPKTRRRPRRSQRKRPPTPWPTSQGLDRVFFSDTQSTCLETVYKATGAPSLGDYVRPAYIVTPYWPPVQSIRSPGTPSMDALSAQLYSSLSLDSPPSPPREPLRPSRSLPRQSLIQPPTFLPPSSRPCANTPPSEMDTWNPPLGSTSQPCLFQTPDSGPKTCTPSGEAPLSACTSTSFPPPSPGPSCPT [H121L] here?
Its value is “disrupting interaction”.

For MPKTRRRPRRSQRKRPPTPWPTSQGLDRVFFSDTQSTCLETVYKATGAPSLGDYVRPAYIVTPYWPPVQSIRSPGTPSMDALSAQLYSSLSLDSPPSPPREPLRPSRSLPRQSLIQPPTLHPPSSRPCANTPPSEMDTWNPPLGSTSQPCLFQTPDSGPKTCTPSGEAPLSACTSTSFPPPSPGPSCPT [F120L], which “effect of a mutation on the interaction” value is on record?
Its value is “disrupting interaction”.
